This data set addresses PARP-1 (recombinant, unmodified) (UniProt P09874 1-1014). Kind of data set: EMSA. (A gel shift assay detects complexes by their altered migration in electrophoresis.)

Chain of PARP-1 (recombinant, unmodified) (P09874 whole entry): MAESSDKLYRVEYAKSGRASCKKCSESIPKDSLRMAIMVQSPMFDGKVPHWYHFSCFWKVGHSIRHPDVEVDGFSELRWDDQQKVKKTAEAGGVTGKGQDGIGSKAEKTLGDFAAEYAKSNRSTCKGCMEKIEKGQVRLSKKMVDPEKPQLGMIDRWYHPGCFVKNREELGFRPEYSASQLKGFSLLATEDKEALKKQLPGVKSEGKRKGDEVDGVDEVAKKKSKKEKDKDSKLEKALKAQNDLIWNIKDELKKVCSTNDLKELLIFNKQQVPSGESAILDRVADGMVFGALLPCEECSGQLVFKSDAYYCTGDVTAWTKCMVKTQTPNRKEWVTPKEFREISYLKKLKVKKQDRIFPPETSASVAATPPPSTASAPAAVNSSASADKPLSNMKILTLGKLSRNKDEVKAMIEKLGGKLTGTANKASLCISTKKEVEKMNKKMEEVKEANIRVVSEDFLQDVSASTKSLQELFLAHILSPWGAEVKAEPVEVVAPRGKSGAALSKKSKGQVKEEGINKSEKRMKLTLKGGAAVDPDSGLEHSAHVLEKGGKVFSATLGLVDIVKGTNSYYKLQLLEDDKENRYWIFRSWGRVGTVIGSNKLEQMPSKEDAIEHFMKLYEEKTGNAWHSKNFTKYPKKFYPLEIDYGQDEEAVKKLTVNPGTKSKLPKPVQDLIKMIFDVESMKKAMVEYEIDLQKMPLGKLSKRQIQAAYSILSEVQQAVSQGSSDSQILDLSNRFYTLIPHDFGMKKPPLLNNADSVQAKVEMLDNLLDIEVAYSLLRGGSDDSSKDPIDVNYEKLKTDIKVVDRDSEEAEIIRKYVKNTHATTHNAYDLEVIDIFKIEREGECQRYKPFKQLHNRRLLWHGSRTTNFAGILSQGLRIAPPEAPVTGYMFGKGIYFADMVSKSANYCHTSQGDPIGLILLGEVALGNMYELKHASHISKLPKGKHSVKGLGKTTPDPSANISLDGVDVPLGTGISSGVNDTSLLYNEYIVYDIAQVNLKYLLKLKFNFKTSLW

B1: NS (MOR poly(C) sequence) (dsDNA)
DNA 1: CTTCTGCTCCCCCCCCCCCTACCC
DNA 2: GGGTAGGGGGGGGGGGAGCAGAAG
Turning to B1, the binding result is “binds”.

The values are drawn from publication PMC4514111.
